B1: biotinylated-C5a (ligand)
chain: TLQKKIEEIAAKYKHSVVKKCCYDGACVNNDETCEQRAARISLGPRCIKAFTECCVVASQLRANISHKDMQLGR
modifications: biotinylated (site not stated)
notes: also called immobilized C5a; source: bought: Abvance Biotech (ABVC5ARBIO1)
B2: Leptospira interrogans glyceraldehyde-3-phosphate dehydrogenase (GAPDH) (enzyme)
chain: MTRIAINGFGRIGRLVFRAGIKDPNLEFVAINDLVTPDNLAYLLKYDSTHGRFQGTVEHTEKELIVDGKKILCVSERDPEKLPWKDLKVDYVIESTGLFTDRVGAEKHIKAGAKKVVISAPAKDKDIPTFVMGVNNEKYNPSNDHIVSNASCTTNCLAPIVKVVLDNWGIEEGLMTTIHATTATQPTVDGPSKKDFRGGRGAMQNIIPASTGAAKAVGLCIPEVNGKLTGMSFRVPTPDVSVVDLTVRTTKETSLKEISAKMKAASEGAMKGILGYTEDMVVSNDFVSSTLSSIFDMDACIELNSRFFKLVSWYDNEMGYSNRVLDLIRYMAKKG
notes: also called LiGAPDH; L. interrogans GAPDH; source: E. coli Rosetta(DE3), purified (HisTrap, Superdex 200 SEC); not shown: His6, N-terminal, kept

Experiments:
[1] = biological target: B2; assay: BLI; conditions: both partners purified
[2] = biological target: the molecule itself; assay: SEC; HiLoad 16/60 Superdex 200 pg in 10 mM HEPES-NaOH (pH 7.4), 150 mM NaCl, 3.4 mM EDTA; elution volume compared with a calibration curve

| Binder | kon [1] [M⁻¹ s⁻¹] | stoichiometry N [2] |
| --- | --- | --- |
| B1 | 37.3 ± 0.2 | – |
| B2 | – | 4 |

— PMC10318897, “The structure of Leptospira interrogans GAPDH sheds light into an immunoevasion factor that can target the anaphylatoxin C5a of innate immunity” (Frontiers in Immunology, 2023)
